Measurements reported in patent publication US20220204580A1 (AstraZeneca / MedImmune, published 2022).
Values belong to the binder of their own block, whether it stands above or below them. Numbered stars: 1 amine (or outer) side, 2 acyl side, 3 side chain; on linkers, the order of the positions; unused ones are H or OH. Bridge positions count the residues as written; N and C are the ends. Square brackets hold non-standard residues; d marks the D form. Side chains are listed from the residue outwards. Ends that are not written are not given here. * marks the point of attachment. C18 diacid = O=C(O)CCCCCCCCCCCCCCCCC(=O)*; γGlu = O=C(O)[C@H](CCC(=O)[*:2])N[*:1]; αMeF = C[C@](N)(Cc1ccccc1)C(=O)O; Dab = NCC[C@H](N)C(=O)O; Aib = CC(C)(N)C(=O)O

Legend:
[1] = target: T1, human amylin receptor (calcitonin receptor co-expressed with receptor activity modifying protein, RAMP3) (human, UniProt P30988 25-474; O60896 24-148); test: cell-based or functional assay
T1 sequence (looked up) 1: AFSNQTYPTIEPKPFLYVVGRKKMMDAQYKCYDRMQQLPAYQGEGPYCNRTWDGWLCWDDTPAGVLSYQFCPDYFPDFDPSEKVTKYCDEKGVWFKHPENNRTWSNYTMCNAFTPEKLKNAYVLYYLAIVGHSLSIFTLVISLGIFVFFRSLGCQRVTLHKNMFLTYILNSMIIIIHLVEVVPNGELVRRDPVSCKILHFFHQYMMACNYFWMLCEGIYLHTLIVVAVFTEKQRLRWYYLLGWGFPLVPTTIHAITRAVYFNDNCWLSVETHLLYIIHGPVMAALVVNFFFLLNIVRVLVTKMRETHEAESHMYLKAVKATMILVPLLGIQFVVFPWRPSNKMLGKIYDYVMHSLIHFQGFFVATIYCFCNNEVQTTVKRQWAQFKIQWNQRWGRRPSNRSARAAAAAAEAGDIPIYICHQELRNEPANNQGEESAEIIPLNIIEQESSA
T1 sequence (looked up) 2: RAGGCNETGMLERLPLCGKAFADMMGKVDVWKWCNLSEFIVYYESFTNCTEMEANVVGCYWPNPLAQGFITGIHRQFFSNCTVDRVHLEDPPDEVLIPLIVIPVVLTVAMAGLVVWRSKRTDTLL

[2] = target: T2, human calcitonin receptor (human, UniProt P30988 25-474); test: cell-based or functional assay
T2 sequence (looked up): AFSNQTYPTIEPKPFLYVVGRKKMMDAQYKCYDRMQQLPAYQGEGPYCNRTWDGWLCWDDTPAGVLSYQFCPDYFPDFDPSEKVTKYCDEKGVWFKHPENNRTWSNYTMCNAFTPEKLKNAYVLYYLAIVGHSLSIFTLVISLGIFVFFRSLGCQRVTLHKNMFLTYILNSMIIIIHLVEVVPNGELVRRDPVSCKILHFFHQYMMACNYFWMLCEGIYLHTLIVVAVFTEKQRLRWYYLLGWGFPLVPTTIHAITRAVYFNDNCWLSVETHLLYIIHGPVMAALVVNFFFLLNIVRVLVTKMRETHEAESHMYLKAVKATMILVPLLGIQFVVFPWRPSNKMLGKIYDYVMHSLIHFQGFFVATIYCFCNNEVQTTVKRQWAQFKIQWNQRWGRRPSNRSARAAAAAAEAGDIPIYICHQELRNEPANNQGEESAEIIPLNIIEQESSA

B1: Peptide 23 (SEQ ID NO: 23) (peptide)
peptide: K([γGlu-γGlu-C18 diacid])CNTATCATQRLANFLVHSSNN[αMeF]GPILPPTEVGSNTY-NH2
modifications: disulfide 2-7; N-terminus assumed
SMILES: CC[C@H](C)[C@H](NC(=O)[C@@H]1CCCN1C(=O)CNC(=O)[C@](C)(Cc1ccccc1)NC(=O)[C@H](CC(N)=O)NC(=O)[C@H](CC(N)=O)NC(=O)[C@H](CO)NC(=O)[C@H](CO)NC(=O)[C@H](Cc1c[nH]cn1)NC(=O)[C@@H](NC(=O)[C@H](CC(C)C)NC(=O)[C@H](Cc1ccccc1)NC(=O)[C@H](CC(N)=O)NC(=O)[C@H](C)NC(=O)[C@H](CC(C)C)NC(=O)[C@H](CCCNC(=N)N)NC(=O)[C@H](CCC(N)=O)NC(=O)[C@@H](NC(=O)[C@H](C)NC(=O)[C@@H]1CSSC[C@H](NC(=O)[C@@H](N)CCCCNC(=O)CC[C@H](NC(=O)CC[C@H](NC(=O)CCCCCCCCCCCCCCCCC(=O)O)C(=O)O)C(=O)O)C(=O)N[C@@H](CC(N)=O)C(=O)N[C@@H]([C@@H](C)O)C(=O)N[C@@H](C)C(=O)N[C@@H]([C@@H](C)O)C(=O)N1)[C@@H](C)O)C(C)C)C(=O)N[C@@H](CC(C)C)C(=O)N1CCC[C@H]1C(=O)N1CCC[C@H]1C(=O)N[C@H](C(=O)N[C@@H](CCC(=O)O)C(=O)N[C@H](C(=O)NCC(=O)N[C@@H](CO)C(=O)N[C@@H](CC(N)=O)C(=O)N[C@H](C(=O)N[C@@H](Cc1ccc(O)cc1)C(N)=O)[C@@H](C)O)C(C)C)[C@@H](C)O
EC50 (cAMP production) [1]: 0.238 nM
Ratio (EC50 hCTR / EC50 hAMYR3) [1]: 2
EC50 (cAMP production) [2]: 0.589 nM

Binder: {C18 diacid}-[γGlu][γGlu]GGGKCNTATCATQRLANFLVHSSNNFGPILPPTNVGSNTY-NH2 (disulfide 7-12) [Peptide 4 (SEQ ID NO: 4)]
EC50 (cAMP production) [1]: 0.248 nM
Ratio (EC50 hCTR / EC50 hAMYR3) [1]: 30
EC50 (cAMP production) [2]: 7.53 nM

B2: Peptide 25 (SEQ ID NO: 25) (peptide)
peptide: K([γGlu-C18 diacid])CNTATCATQRLANFLVHSSNN[αMeF]GPILPPTRVGSNTY-NH2
modifications: disulfide 2-7; N-terminus assumed
SMILES: CC[C@H](C)[C@H](NC(=O)[C@@H]1CCCN1C(=O)CNC(=O)[C@](C)(Cc1ccccc1)NC(=O)[C@H](CC(N)=O)NC(=O)[C@H](CC(N)=O)NC(=O)[C@H](CO)NC(=O)[C@H](CO)NC(=O)[C@H](Cc1c[nH]cn1)NC(=O)[C@@H](NC(=O)[C@H](CC(C)C)NC(=O)[C@H](Cc1ccccc1)NC(=O)[C@H](CC(N)=O)NC(=O)[C@H](C)NC(=O)[C@H](CC(C)C)NC(=O)[C@H](CCCNC(=N)N)NC(=O)[C@H](CCC(N)=O)NC(=O)[C@@H](NC(=O)[C@H](C)NC(=O)[C@@H]1CSSC[C@H](NC(=O)[C@@H](N)CCCCNC(=O)CC[C@H](NC(=O)CCCCCCCCCCCCCCCCC(=O)O)C(=O)O)C(=O)N[C@@H](CC(N)=O)C(=O)N[C@@H]([C@@H](C)O)C(=O)N[C@@H](C)C(=O)N[C@@H]([C@@H](C)O)C(=O)N1)[C@@H](C)O)C(C)C)C(=O)N[C@@H](CC(C)C)C(=O)N1CCC[C@H]1C(=O)N1CCC[C@H]1C(=O)N[C@H](C(=O)N[C@@H](CCCNC(=N)N)C(=O)N[C@H](C(=O)NCC(=O)N[C@@H](CO)C(=O)N[C@@H](CC(N)=O)C(=O)N[C@H](C(=O)N[C@@H](Cc1ccc(O)cc1)C(N)=O)[C@@H](C)O)C(C)C)[C@@H](C)O
EC50 (cAMP production) [1]: 0.105 nM
Ratio (EC50 hCTR / EC50 hAMYR3) [1]: 12
EC50 (cAMP production) [2]: 1.25 nM

Next, values leading:

EC50 (cAMP production) [1]: 0.409 nM
Ratio (EC50 hCTR / EC50 hAMYR3) [1]: 7
EC50 (cAMP production) [2]: 2.8 nM
B3: Peptide 26 (SEQ ID NO: 26) (peptide)
peptide: K([γGlu-γGlu-C18 diacid])CNTATCATQRLANFL[Aib]HSSNN[αMeF]GPILPPTNVGSNTY-NH2
modifications: disulfide 2-7; N-terminus assumed
SMILES: CC[C@H](C)[C@H](NC(=O)[C@@H]1CCCN1C(=O)CNC(=O)[C@](C)(Cc1ccccc1)NC(=O)[C@H](CC(N)=O)NC(=O)[C@H](CC(N)=O)NC(=O)[C@H](CO)NC(=O)[C@H](CO)NC(=O)[C@H](Cc1c[nH]cn1)NC(=O)C(C)(C)NC(=O)[C@H](CC(C)C)NC(=O)[C@H](Cc1ccccc1)NC(=O)[C@H](CC(N)=O)NC(=O)[C@H](C)NC(=O)[C@H](CC(C)C)NC(=O)[C@H](CCCNC(=N)N)NC(=O)[C@H](CCC(N)=O)NC(=O)[C@@H](NC(=O)[C@H](C)NC(=O)[C@@H]1CSSC[C@H](NC(=O)[C@@H](N)CCCCNC(=O)CC[C@H](NC(=O)CC[C@H](NC(=O)CCCCCCCCCCCCCCCCC(=O)O)C(=O)O)C(=O)O)C(=O)N[C@@H](CC(N)=O)C(=O)N[C@@H]([C@@H](C)O)C(=O)N[C@@H](C)C(=O)N[C@@H]([C@@H](C)O)C(=O)N1)[C@@H](C)O)C(=O)N[C@@H](CC(C)C)C(=O)N1CCC[C@H]1C(=O)N1CCC[C@H]1C(=O)N[C@H](C(=O)N[C@@H](CC(N)=O)C(=O)N[C@H](C(=O)NCC(=O)N[C@@H](CO)C(=O)N[C@@H](CC(N)=O)C(=O)N[C@H](C(=O)N[C@@H](Cc1ccc(O)cc1)C(N)=O)[C@@H](C)O)C(C)C)[C@@H](C)O

EC50 (cAMP production) [1]: 0.134 nM
Ratio (EC50 hCTR / EC50 hAMYR3) [1]: 5
EC50 (cAMP production) [2]: 0.731 nM
B4: Peptide 27 (SEQ ID NO: 27) (peptide)
peptide: K([γGlu-γGlu-C18 diacid])CNIATCATQRLANFLVHSS[Dab]NFGPILPPTNVGSRTY-NH2
modifications: disulfide 2-7; N-terminus assumed
SMILES: CC[C@H](C)[C@@H]1NC(=O)[C@H](CC(N)=O)NC(=O)[C@@H](NC(=O)[C@@H](N)CCCCNC(=O)CC[C@H](NC(=O)CC[C@H](NC(=O)CCCCCCCCCCCCCCCCC(=O)O)C(=O)O)C(=O)O)CSSC[C@@H](C(=O)N[C@@H](C)C(=O)N[C@H](C(=O)N[C@@H](CCC(N)=O)C(=O)N[C@@H](CCCNC(=N)N)C(=O)N[C@@H](CC(C)C)C(=O)N[C@@H](C)C(=O)N[C@@H](CC(N)=O)C(=O)N[C@@H](Cc2ccccc2)C(=O)N[C@@H](CC(C)C)C(=O)N[C@H](C(=O)N[C@@H](Cc2c[nH]cn2)C(=O)N[C@@H](CO)C(=O)N[C@@H](CO)C(=O)N[C@@H](CCN)C(=O)N[C@@H](CC(N)=O)C(=O)N[C@@H](Cc2ccccc2)C(=O)NCC(=O)N2CCC[C@H]2C(=O)N[C@H](C(=O)N[C@@H](CC(C)C)C(=O)N2CCC[C@H]2C(=O)N2CCC[C@H]2C(=O)N[C@H](C(=O)N[C@@H](CC(N)=O)C(=O)N[C@H](C(=O)NCC(=O)N[C@@H](CO)C(=O)N[C@@H](CCCNC(=N)N)C(=O)N[C@H](C(=O)N[C@@H](Cc2ccc(O)cc2)C(N)=O)[C@@H](C)O)C(C)C)[C@@H](C)O)[C@@H](C)CC)C(C)C)[C@@H](C)O)NC(=O)[C@H]([C@@H](C)O)NC(=O)[C@H](C)NC1=O
